{
  "source": "paper PMC10666276",
  "about": "(Biochemistry, 2023)",
  "molecules": {"B1": {"name": "Aspergillus fumigatus NADase (AfNADase), wild type (enzyme)", "chain": "LQHTEDSLFPARCWPDPCAGITFQNDTYVCGDPRLGPVVLPQKFPLNNELRTYARFGALCPAEFLDKWATDVAPNGTYIYPPANGFALDTEEQPILGNATLPVGMKLDRFGSEYGTFLAPLGAPYIERSLPPSNLNTFDGMYPYNYHVYQVTKEFVVGLGPIAPWFEQPGMGTQFVTYTNVLGLIDDGYLRRLDESEYDEKVEYSNPYTPGPNQ", "modifications": "N-linked glycosylation sites (as observed in the wild-type structure 6YGE)"}},
  "key": {"[1]": {"tested_on": "NC(=O)c1ccc[n+]([C@@H]2O[C@H](COP(=O)(O)OP(=O)(O)OC[C@H]3O[C@@H](n4cnc5c4ncn4ccnc54)[C@H](O)[C@@H]3O)[C@@H](O)[C@H]2O)c1", "assay": "purified protein", "settings": "50 mM sodium acetate pH 5.5, 150 mM NaCl, 500 μM CaCl2, 25 °C, 10 ng enzyme", "from_the_text": "fluorometric hydrolysis assay, Michaelis-Menten fit on AfNADase"}, "[2]": {"biological_target": "AfNADase^D219A/E220A (Aspergillus fumigatus) (UniProt Q4WL81)", "assay": "crystal structure"}, "SEC": {"biological_target": "the molecule itself", "assay": "SEC"}},
  "data": [
    {"molecule": "AfNADase (Aspergillus fumigatus Af293)", "values": [
      {"measurement": "Km", "setting": "[1]", "result": "54.8 ± 15.3", "unit": "µM"},
      {"measurement": "Vmax", "setting": "[1]", "result": 4570, "unit": "µmol/min/mg"}
    ]},
    {"molecule": "AfNADase^D219A/E220A (from UniProt Q4WL81) (enzyme)", "values": [
      {"measurement": "stoichiometry N", "setting": "[2]", "result": 2}
    ]},
    {"molecule": "B1", "values": [
      {"measurement": "binding result", "setting": "SEC", "result": "binds"}
    ]}
  ]
}
